Assay [1] deals with recombinant human Cdk5 (Cyclin-Dependent Kinase 5) (human) (UniProt Q00535).
Assay [2] shares this target. The experiment in a line: SPR; recombinant Cdk5 immobilised on a Ni-NTA sensor chip (NiCl2 solution, then the protein); peptide YCWS passed over at 0.4, 0.6 and 1 µM; KA and KD calculated with BIA evaluation 3.0 software.

The values below come from paper PMC12562681, “Targeting a Tau Kinase Cdk5, Cyclin-Dependent Kinase: A Blood-Based Diagnostic Marker and Therapeutic Earmark for Alzheimer’s Disease” (Biomolecules, 2025).

Take peptide YCWS: the cell viability (MTT) of differentiated SH-SY5Y cells treated with 20 µM aggregated Aβ25–35 together with YCWS at 2, 5, 10, 15 and 20 µM (77.65% without the peptide) in assay [1] turned out to be 98.5%. For the same substance, the Kd in assay [2] is 3.94 nM.
